Assay results published in PMC2922928 (Nature structural & molecular biology, 2010).

Assays:
Test in all cases: ELISA
[1] = target: His-tagged p53(ΔC30) purified from bacteria (human, UniProt P04637 1-363)
[2] = target: Flag-p53 purified from insect cells (unacetylated) (human, UniProt P04637 1-393)
[3] = target: His-tagged p53 purified from bacteria (human, UniProt P04637 1-393)

Measured: binding result

B1: untagged Mdm2(10–139) (domain or fragment)
chain: GSMTDGAVTTSQIPASEQETLVRPKPLLLKLLKSVGAQKDTYTMKEVLFYLGQYIMTKRLYDEKQQHIVYCSNDLLGDLFGVPSFSVKEHRKIYTMIYRNLVVVNQQESSDSGTSVSENRCHLEGGSDQKDLV
binds: all assays above
